Results: article doi:10.1101/2020.03.31.018150

Key:
[1] = molecular target: Retromer (His10-SNAP-VPS26/VPS35/VPS29 trimer, AF488-labeled) (human) (UniProt O75436)
[2] = molecular target: Retromer (His10-SNAP-VPS26/VPS35/VPS29 trimer, AF488-labeled) (human) (UniProt O75436); remark: listed apart in the source

percent of particles that are dimers [1]: 35% | percent of particles that are monomers [1]: 18% | percent of particles that are pentamers or higher-order oligomers up to ten [1]: 10% | percent of particles that are tetramers [1]: 13% | percent of particles that are trimers [1]: 24% | mean Retromer complexes per cluster (Retromer complexes per cluster) [2]: 2.7
Substance: Retromer (His10-SNAP-VPS26/VPS35/VPS29 trimer, AF488-labeled) (from UniProt O75436;Q96QK1;Q9UBQ0) (complex)
